# From publication PMC9405973, “Altered Conformational Landscape upon Sensing Guanine Nucleotides in a Disease Mutant of Elongation Factor-like 1 (EFL1) GTPase” (Biomolecules, 2022)
# Values joined by “and” are separate entries in the source; they are usually repeats but may differ in a detail not shown here. Equal entries are not always repeated.
# T1: S. cerevisiae Efl1 R1086Q (S. cerevisiae, UniProt P53893 1-1110, R1086Q)
# T1 construct: Elongation Factor-like 1 (Efl1) GTPase of S. cerevisiae with the mutation R1086Q, equivalent to human EFL1 R1095Q; also called mutant Efl1; mutant R1086Q; source: recombinantly expressed in S. cerevisiae, purified
# T1 sequence (looked up): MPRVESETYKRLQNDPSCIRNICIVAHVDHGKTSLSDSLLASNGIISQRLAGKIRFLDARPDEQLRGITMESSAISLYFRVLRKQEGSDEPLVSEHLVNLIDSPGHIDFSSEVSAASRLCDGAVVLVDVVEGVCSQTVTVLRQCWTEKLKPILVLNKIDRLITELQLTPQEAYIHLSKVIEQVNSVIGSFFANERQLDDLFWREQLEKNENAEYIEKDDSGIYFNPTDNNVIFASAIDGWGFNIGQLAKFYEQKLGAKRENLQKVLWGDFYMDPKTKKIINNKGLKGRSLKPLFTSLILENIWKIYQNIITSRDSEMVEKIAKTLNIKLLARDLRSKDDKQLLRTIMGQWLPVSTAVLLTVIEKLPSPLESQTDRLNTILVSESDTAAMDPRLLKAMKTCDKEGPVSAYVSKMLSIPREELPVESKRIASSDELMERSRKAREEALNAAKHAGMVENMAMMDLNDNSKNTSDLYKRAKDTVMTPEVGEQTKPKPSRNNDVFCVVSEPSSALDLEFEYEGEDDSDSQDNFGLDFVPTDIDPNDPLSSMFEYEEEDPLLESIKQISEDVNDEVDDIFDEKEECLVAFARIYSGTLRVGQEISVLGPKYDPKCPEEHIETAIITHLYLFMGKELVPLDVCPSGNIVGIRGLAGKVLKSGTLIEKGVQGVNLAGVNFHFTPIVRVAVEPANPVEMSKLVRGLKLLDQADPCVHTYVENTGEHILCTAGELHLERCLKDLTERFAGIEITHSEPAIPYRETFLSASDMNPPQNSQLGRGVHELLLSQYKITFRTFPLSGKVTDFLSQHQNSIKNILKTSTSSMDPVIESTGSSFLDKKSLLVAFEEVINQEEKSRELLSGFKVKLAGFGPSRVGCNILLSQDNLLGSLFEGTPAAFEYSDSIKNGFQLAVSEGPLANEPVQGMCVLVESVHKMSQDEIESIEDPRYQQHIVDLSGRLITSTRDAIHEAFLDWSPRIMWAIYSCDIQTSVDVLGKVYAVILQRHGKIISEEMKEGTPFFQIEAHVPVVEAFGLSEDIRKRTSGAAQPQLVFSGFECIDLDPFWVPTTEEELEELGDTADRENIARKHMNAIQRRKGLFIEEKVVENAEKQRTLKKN
# Tests used:
# [1] = target: T1, S. cerevisiae Efl1 R1086Q; experiment: ITC; 30 °C; GTPase in the cell (30-50 µM), Sdo1 as ligand; 50 mM Tris-HCl pH 8.0, 150 mM NaCl, 100 µM DTT, 5% glycerol; one-binding-site model; details: both partners purified
# wild-type Efl1 = details: cited from earlier work
# Efl1 R1086Q = target: T2, Efl1 R1086Q (Saccharomyces cerevisiae, UniProt P53893, R1086Q); experiment: Isothermal titration calorimetry (ITC): binding of guanine nucleotides or Sdo1 to Efl1 R1086Q
# T2 construct: made in house; host or cells: Saccharomyces cerevisiae
# Protocol: All calorimetric measurements were carried out using MicroCal^TM iTC200 System (GE Healthcare, Northampton, MA, USA) in a temperature range of 25–35 °C. Experiments were performed in a buffer consisting of 50 mM Tris-HCl (pH 8.0), 150 mM NaCl, 100 µM DTT, and 5% glycerol. In the titrations with Mg^2+-bound nucleotides, both the ligand and protein solutions contained 5 mM MgCl2. In the case of titrations with Mg^2+-free nucleotide, both the ligand and protein solutions were supplemented with 2 mM EDTA to sequester any residual trace of metal ions in solution. Protein samples and ligands were prepared in the exact same buffer prior to each titration. Protein concentration in the cell comprised 30–50 µM GTPase, while the ligand concentration in the syringe was 2–3 mM for GTP, MgGTP, GDP, and MgGDP. To ensure measuring the interaction of the complex Efl1 R1086Q•Sdo1 with the nucleotide, an eight-fold concentration excess of Sdo1 was used compared with that of the enzyme. […] The titration schedule consisted of 15–20 consecutive injections of the ligand with 5 min intervals between injections and a stirring rate of 700 rpm. The dilution heat of the ligand was obtained by adding the ligand to a buffer solution under identical conditions and with the same injection schedule used for the protein sample. All samples were degassed for 10 min prior to the experiment.
# The binding isotherms obtained for the isolated GTPase in the presence of Mg(II) were analysed using a ternary model in which the protein can bind to the free nucleotide (G(D)TP) or that bound to one magnesium ion (MgG(D)TP); additionally, GTP may also exist in the form of Mg2GTP, which is not recognised by the protein. The derivation of this coupled-equilibria model can be reviewed in [6, 31]. The binding constant (Kb), the enthalpy change (∆Hb), and the stoichiometry (n) were obtained with the non-linear routines implemented in Origin 5.0 (OriginLab, Co., Northampton, MA, USA) using a one-binding-site model as described in [32, 33]. The heterotropic cooperativity for the binding of guanine nucleotides and Sdo1 to Efl1 R1086Q were calculated as previously described in [6, 32]. The cooperative effects of Mg(II) on the binding of guanine nucleotides to Efl1 R1086Q alone and bound to Sdo1 were calculated as follows:κ = KE-MG/KE-G κ = KES-MG/KES-G Δh = ΔHE-MG − ΔHE-G Δh = ΔHES-MG − ΔHES-G where subscripts E-MG and E-G stand for the association of the metal-bound and metal-free guanine nucleotide with mutant Efl1, respectively. Corresponding expressions applied to the heterotropic cooperativity of the binding of nucleotides to the preformed complex, Efl1•Sdo1 (ES).
# The impact of Sdo1 on the binding of Efl1 R1086Q to guanine nucleotides in the presence of magnesium ions is contained in KES-MG and ΔHES-MG relative to the KE-S and ΔHE-S values; analogous ratios report the effects in the absence of Mg(II):κ = KES-MG/KE-S κ = KES-G/KE-G Δh = ΔHES-MG − ΔHE-S Δh = ΔHES-G − ΔHE-G
# The corresponding cooperative entropy change was calculated as:TΔs = Δh − Δg = Δh + RTlnκ
# The detailed methodology and equations to compute the changes in the accessible surface area (∆ASA) of the GTPase upon binding to nucleotides and the ∆S energetic-based parameters are reported in [6]. Briefly, the water-accessible areas (ASAs) were computed using programme NACCESS, while the changes in accessible surface area (ΔASA) upon the formation of each GTPase–nucleotide complex were estimated considering the difference between the complex and the sum of the free interacting partners. The calculated polar (ΔASAp) and apolar (ΔASAap) area changes were subsequently used to estimate the free molecular partners. […]
# [2] = target: T1, S. cerevisiae Efl1 R1086Q; experiment: ITC; 25 °C; GTPase in the cell (30-50 µM), Sdo1 as ligand; 50 mM Tris-HCl pH 8.0, 150 mM NaCl, 100 µM DTT, 5% glycerol; one-binding-site model; details: both partners purified
# [3] = target: T1, S. cerevisiae Efl1 R1086Q; experiment: ITC; 35 °C; GTPase in the cell (30-50 µM), Sdo1 as ligand; 50 mM Tris-HCl pH 8.0, 150 mM NaCl, 100 µM DTT, 5% glycerol; one-binding-site model; details: both partners purified
# [4] = target: T1, S. cerevisiae Efl1 R1086Q; experiment: ITC; coupled equilibria at 30 °C with MgGDP (5 mM MgCl2); heterotropic cooperativity calculated from the titrations of Efl1 R1086Q and of Efl1 R1086Q•Sdo1; details: both partners purified
molecule,measurement,setting,value
"Yeast SBDS (Sdo1) (natural protein, S. cerevisiae, UniProt Q07953 1-250, looked up, Sdo1, the yeast orthologue of SBDS; also called yeast Shwachman-Bodian-Diamond syndrome protein; source: E. coli C41, purified) MPINQPSGQIKLTNVSLVRLKKARKRFEVACYQNKVQDYRKGIEKDLDEVLQIHQVFMNVSKGLVANKEDLQKCFGTTNVDDVIEEIMHKGEIQLSEKERQLMLNKVNNEMLTIVSAKCINPVSKKRYPPTMIHKALQELKFSPVINKPAKLQALEAIKLLVSKQIIPIVRAKMKVKVAISEPSRQPELIEKISKLIASSPGESTKPELDPWTCTGLIDPVNYRDLMTLCDKKGTVQVLDMAVIDNTTHN",Ka,[1],288000 ± 56000 M⁻¹
same,Kd,[1],3400 ± 600 nM
same,dH,[1],-6.3 ± 0.2 kcal/mol
same,-TΔSb,"wild-type Efl1; ligand Sdo1, 30 °C",4.4 kcal/mol
same,Kd,"wild-type Efl1; ligand Sdo1, 30 °C",300 nM
same,ΔGb,"wild-type Efl1; ligand Sdo1, 30 °C",-9.0 kcal/mol
same,ΔHb,"wild-type Efl1; ligand Sdo1, 30 °C",-13.4 ± 0.4 kcal/mol
same,ΔCpb,wild-type Efl1; ligand Sdo1,−860 cal mol^−1 K^−1 and −860 ± 31 cal mol^−1 K^−1
same,-TΔSb,"Efl1 R1086Q; ligand Sdo1, 25 °C",-3.1 kcal/mol
same,ΔGb,"Efl1 R1086Q; ligand Sdo1, 25 °C",-7.4 kcal/mol
same,-TΔSb,"Efl1 R1086Q; ligand Sdo1, 30 °C",-1.3 kcal/mol
same,ΔGb,"Efl1 R1086Q; ligand Sdo1, 30 °C",-7.6 kcal/mol
same,Kd,"Efl1 R1086Q; ligand Sdo1, 30 °C, read-out: Kd",3000 nM
same,-TΔSb,"Efl1 R1086Q; ligand Sdo1, 35 °C",0.6 kcal/mol
same,ΔGb,"Efl1 R1086Q; ligand Sdo1, 35 °C",-8.1 kcal/mol
same,ΔCpb,"Efl1 R1086Q; ligand Sdo1, from ΔHb at 25–35 °C",−440 cal mol^−1 K^−1 and −440 ± 23 cal mol^−1 K^−1
same,Ka,[2],256000 ± 47000 M⁻¹
same,Kd,[2],3900 ± 700 nM
same,dH,[2],-4.3 ± 0.1 kcal/mol
same,Ka,[3],543000 ± 76000 M⁻¹
same,Kd,[3],1800 ± 200 nM
same,dH,[3],-8.7 ± 0.1 kcal/mol
same,fold decrease of the interaction with MgGDP against no nucleotide,[4],3 fold
